Sequences and labels used below:
T1: 14-3-3, P63104
T1 chain: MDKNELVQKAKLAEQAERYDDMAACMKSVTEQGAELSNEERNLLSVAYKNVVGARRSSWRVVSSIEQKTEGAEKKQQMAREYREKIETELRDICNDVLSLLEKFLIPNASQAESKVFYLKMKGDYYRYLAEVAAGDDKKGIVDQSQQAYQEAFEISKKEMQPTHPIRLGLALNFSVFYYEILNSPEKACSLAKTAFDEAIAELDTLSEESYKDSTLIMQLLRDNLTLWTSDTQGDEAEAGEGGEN

B1: FLAG-TNK1, Q13470 S502A (protein)
chain: MLPEAGSLWLLKLLRDIQLAQFYWPILEELNVTRPEHFDFVKPEDLDGIGMGRPAQRRLSEALKRLRSGPKSKNWVYKILGGFAPEHKEPTLPSDSPRHLPEPEGGLKCLIPEGAVCRGELLGSGCFGVVHRGLWTLPSGKSVPVAVKSLRVGPEGPMGTELGDFLREVSVMMNLEHPHVLRLHGLVLGQPLQMVMELAPLGSLHARLTAPAPTPPLLVALLCLFLRQLAGAMAYLGARGLVHRDLATRNLLLASPRTIKVADFGLVRPLGGARGRYVMGGPRPIPYAWCAPESLRHGAFSSASDVWMFGVTLWEMFSGGEEPWAGVPPYLILQRLEDRARLPRPPLCSRALYSLALRCWAPHPADRPSFSHLEGLLQEAGPSEACCVRDVTEPGALRMETGDPITVIEGSSSFHSPDSTIWKGQNGRTFKVGSFPASAVTLADAGGLPATRPVHRGTPARGDQHPGSIDGDRKKANLWDAPPARGQRRNMPLERMKGISRALESVLSLGPRPTGGGSSPPEIRQARAVPQGPPGLPPRPPLSSSSPQPSQPSRERLPWPKRKPPHNHPMGMPGARKAAALSGGLLSDPELQRKIMEVELSVHGVTHQECQTALGATGGDVVSAIRNLKVDQLFHLSSRSRADCWRILEHYQWDLSAASRYVLARP
B2: FLAG-TNK1, Q13470 T91A (protein)
chain: MLPEAGSLWLLKLLRDIQLAQFYWPILEELNVTRPEHFDFVKPEDLDGIGMGRPAQRRLSEALKRLRSGPKSKNWVYKILGGFAPEHKEPALPSDSPRHLPEPEGGLKCLIPEGAVCRGELLGSGCFGVVHRGLWTLPSGKSVPVAVKSLRVGPEGPMGTELGDFLREVSVMMNLEHPHVLRLHGLVLGQPLQMVMELAPLGSLHARLTAPAPTPPLLVALLCLFLRQLAGAMAYLGARGLVHRDLATRNLLLASPRTIKVADFGLVRPLGGARGRYVMGGPRPIPYAWCAPESLRHGAFSSASDVWMFGVTLWEMFSGGEEPWAGVPPYLILQRLEDRARLPRPPLCSRALYSLALRCWAPHPADRPSFSHLEGLLQEAGPSEACCVRDVTEPGALRMETGDPITVIEGSSSFHSPDSTIWKGQNGRTFKVGSFPASAVTLADAGGLPATRPVHRGTPARGDQHPGSIDGDRKKANLWDAPPARGQRRNMPLERMKGISRSLESVLSLGPRPTGGGSSPPEIRQARAVPQGPPGLPPRPPLSSSSPQPSQPSRERLPWPKRKPPHNHPMGMPGARKAAALSGGLLSDPELQRKIMEVELSVHGVTHQECQTALGATGGDVVSAIRNLKVDQLFHLSSRSRADCWRILEHYQWDLSAASRYVLARP
B3: FLAG-TNK1, Q13470 S434A (protein)
chain: MLPEAGSLWLLKLLRDIQLAQFYWPILEELNVTRPEHFDFVKPEDLDGIGMGRPAQRRLSEALKRLRSGPKSKNWVYKILGGFAPEHKEPTLPSDSPRHLPEPEGGLKCLIPEGAVCRGELLGSGCFGVVHRGLWTLPSGKSVPVAVKSLRVGPEGPMGTELGDFLREVSVMMNLEHPHVLRLHGLVLGQPLQMVMELAPLGSLHARLTAPAPTPPLLVALLCLFLRQLAGAMAYLGARGLVHRDLATRNLLLASPRTIKVADFGLVRPLGGARGRYVMGGPRPIPYAWCAPESLRHGAFSSASDVWMFGVTLWEMFSGGEEPWAGVPPYLILQRLEDRARLPRPPLCSRALYSLALRCWAPHPADRPSFSHLEGLLQEAGPSEACCVRDVTEPGALRMETGDPITVIEGSSSFHSPDSTIWKGQNGRTFKVGAFPASAVTLADAGGLPATRPVHRGTPARGDQHPGSIDGDRKKANLWDAPPARGQRRNMPLERMKGISRSLESVLSLGPRPTGGGSSPPEIRQARAVPQGPPGLPPRPPLSSSSPQPSQPSRERLPWPKRKPPHNHPMGMPGARKAAALSGGLLSDPELQRKIMEVELSVHGVTHQECQTALGATGGDVVSAIRNLKVDQLFHLSSRSRADCWRILEHYQWDLSAASRYVLARP
B4: FLAG-TNK1, Q13470 S68A (protein)
chain: MLPEAGSLWLLKLLRDIQLAQFYWPILEELNVTRPEHFDFVKPEDLDGIGMGRPAQRRLSEALKRLRAGPKSKNWVYKILGGFAPEHKEPTLPSDSPRHLPEPEGGLKCLIPEGAVCRGELLGSGCFGVVHRGLWTLPSGKSVPVAVKSLRVGPEGPMGTELGDFLREVSVMMNLEHPHVLRLHGLVLGQPLQMVMELAPLGSLHARLTAPAPTPPLLVALLCLFLRQLAGAMAYLGARGLVHRDLATRNLLLASPRTIKVADFGLVRPLGGARGRYVMGGPRPIPYAWCAPESLRHGAFSSASDVWMFGVTLWEMFSGGEEPWAGVPPYLILQRLEDRARLPRPPLCSRALYSLALRCWAPHPADRPSFSHLEGLLQEAGPSEACCVRDVTEPGALRMETGDPITVIEGSSSFHSPDSTIWKGQNGRTFKVGSFPASAVTLADAGGLPATRPVHRGTPARGDQHPGSIDGDRKKANLWDAPPARGQRRNMPLERMKGISRSLESVLSLGPRPTGGGSSPPEIRQARAVPQGPPGLPPRPPLSSSSPQPSQPSRERLPWPKRKPPHNHPMGMPGARKAAALSGGLLSDPELQRKIMEVELSVHGVTHQECQTALGATGGDVVSAIRNLKVDQLFHLSSRSRADCWRILEHYQWDLSAASRYVLARP
B5: FLAG-TNK1, Q13470 T392A (protein)
chain: MLPEAGSLWLLKLLRDIQLAQFYWPILEELNVTRPEHFDFVKPEDLDGIGMGRPAQRRLSEALKRLRSGPKSKNWVYKILGGFAPEHKEPTLPSDSPRHLPEPEGGLKCLIPEGAVCRGELLGSGCFGVVHRGLWTLPSGKSVPVAVKSLRVGPEGPMGTELGDFLREVSVMMNLEHPHVLRLHGLVLGQPLQMVMELAPLGSLHARLTAPAPTPPLLVALLCLFLRQLAGAMAYLGARGLVHRDLATRNLLLASPRTIKVADFGLVRPLGGARGRYVMGGPRPIPYAWCAPESLRHGAFSSASDVWMFGVTLWEMFSGGEEPWAGVPPYLILQRLEDRARLPRPPLCSRALYSLALRCWAPHPADRPSFSHLEGLLQEAGPSEACCVRDVAEPGALRMETGDPITVIEGSSSFHSPDSTIWKGQNGRTFKVGSFPASAVTLADAGGLPATRPVHRGTPARGDQHPGSIDGDRKKANLWDAPPARGQRRNMPLERMKGISRSLESVLSLGPRPTGGGSSPPEIRQARAVPQGPPGLPPRPPLSSSSPQPSQPSRERLPWPKRKPPHNHPMGMPGARKAAALSGGLLSDPELQRKIMEVELSVHGVTHQECQTALGATGGDVVSAIRNLKVDQLFHLSSRSRADCWRILEHYQWDLSAASRYVLARP

The source of these data is publication PMC10099770.

One assay concerns the target FLAG-AKAP13 T2467A (UniProt Q12802). The assay is described as follows: co-IP; FLAG construct precipitated from transfected HEK293T lysate on anti-DYKDDDDK resin or DYKDDDDK Fab-Trap agarose, 1 hour at 4 °C; lysis buffer 10 mM HEPES KOH pH 7.5, 150 mM KCl, 0.01% IGEPAL with protease and phosphatase inhibitors; washed with PBS three times; immunoblot for 14-3-3.
UniProt Q12802, sequence (Q12802 whole entry T2467A): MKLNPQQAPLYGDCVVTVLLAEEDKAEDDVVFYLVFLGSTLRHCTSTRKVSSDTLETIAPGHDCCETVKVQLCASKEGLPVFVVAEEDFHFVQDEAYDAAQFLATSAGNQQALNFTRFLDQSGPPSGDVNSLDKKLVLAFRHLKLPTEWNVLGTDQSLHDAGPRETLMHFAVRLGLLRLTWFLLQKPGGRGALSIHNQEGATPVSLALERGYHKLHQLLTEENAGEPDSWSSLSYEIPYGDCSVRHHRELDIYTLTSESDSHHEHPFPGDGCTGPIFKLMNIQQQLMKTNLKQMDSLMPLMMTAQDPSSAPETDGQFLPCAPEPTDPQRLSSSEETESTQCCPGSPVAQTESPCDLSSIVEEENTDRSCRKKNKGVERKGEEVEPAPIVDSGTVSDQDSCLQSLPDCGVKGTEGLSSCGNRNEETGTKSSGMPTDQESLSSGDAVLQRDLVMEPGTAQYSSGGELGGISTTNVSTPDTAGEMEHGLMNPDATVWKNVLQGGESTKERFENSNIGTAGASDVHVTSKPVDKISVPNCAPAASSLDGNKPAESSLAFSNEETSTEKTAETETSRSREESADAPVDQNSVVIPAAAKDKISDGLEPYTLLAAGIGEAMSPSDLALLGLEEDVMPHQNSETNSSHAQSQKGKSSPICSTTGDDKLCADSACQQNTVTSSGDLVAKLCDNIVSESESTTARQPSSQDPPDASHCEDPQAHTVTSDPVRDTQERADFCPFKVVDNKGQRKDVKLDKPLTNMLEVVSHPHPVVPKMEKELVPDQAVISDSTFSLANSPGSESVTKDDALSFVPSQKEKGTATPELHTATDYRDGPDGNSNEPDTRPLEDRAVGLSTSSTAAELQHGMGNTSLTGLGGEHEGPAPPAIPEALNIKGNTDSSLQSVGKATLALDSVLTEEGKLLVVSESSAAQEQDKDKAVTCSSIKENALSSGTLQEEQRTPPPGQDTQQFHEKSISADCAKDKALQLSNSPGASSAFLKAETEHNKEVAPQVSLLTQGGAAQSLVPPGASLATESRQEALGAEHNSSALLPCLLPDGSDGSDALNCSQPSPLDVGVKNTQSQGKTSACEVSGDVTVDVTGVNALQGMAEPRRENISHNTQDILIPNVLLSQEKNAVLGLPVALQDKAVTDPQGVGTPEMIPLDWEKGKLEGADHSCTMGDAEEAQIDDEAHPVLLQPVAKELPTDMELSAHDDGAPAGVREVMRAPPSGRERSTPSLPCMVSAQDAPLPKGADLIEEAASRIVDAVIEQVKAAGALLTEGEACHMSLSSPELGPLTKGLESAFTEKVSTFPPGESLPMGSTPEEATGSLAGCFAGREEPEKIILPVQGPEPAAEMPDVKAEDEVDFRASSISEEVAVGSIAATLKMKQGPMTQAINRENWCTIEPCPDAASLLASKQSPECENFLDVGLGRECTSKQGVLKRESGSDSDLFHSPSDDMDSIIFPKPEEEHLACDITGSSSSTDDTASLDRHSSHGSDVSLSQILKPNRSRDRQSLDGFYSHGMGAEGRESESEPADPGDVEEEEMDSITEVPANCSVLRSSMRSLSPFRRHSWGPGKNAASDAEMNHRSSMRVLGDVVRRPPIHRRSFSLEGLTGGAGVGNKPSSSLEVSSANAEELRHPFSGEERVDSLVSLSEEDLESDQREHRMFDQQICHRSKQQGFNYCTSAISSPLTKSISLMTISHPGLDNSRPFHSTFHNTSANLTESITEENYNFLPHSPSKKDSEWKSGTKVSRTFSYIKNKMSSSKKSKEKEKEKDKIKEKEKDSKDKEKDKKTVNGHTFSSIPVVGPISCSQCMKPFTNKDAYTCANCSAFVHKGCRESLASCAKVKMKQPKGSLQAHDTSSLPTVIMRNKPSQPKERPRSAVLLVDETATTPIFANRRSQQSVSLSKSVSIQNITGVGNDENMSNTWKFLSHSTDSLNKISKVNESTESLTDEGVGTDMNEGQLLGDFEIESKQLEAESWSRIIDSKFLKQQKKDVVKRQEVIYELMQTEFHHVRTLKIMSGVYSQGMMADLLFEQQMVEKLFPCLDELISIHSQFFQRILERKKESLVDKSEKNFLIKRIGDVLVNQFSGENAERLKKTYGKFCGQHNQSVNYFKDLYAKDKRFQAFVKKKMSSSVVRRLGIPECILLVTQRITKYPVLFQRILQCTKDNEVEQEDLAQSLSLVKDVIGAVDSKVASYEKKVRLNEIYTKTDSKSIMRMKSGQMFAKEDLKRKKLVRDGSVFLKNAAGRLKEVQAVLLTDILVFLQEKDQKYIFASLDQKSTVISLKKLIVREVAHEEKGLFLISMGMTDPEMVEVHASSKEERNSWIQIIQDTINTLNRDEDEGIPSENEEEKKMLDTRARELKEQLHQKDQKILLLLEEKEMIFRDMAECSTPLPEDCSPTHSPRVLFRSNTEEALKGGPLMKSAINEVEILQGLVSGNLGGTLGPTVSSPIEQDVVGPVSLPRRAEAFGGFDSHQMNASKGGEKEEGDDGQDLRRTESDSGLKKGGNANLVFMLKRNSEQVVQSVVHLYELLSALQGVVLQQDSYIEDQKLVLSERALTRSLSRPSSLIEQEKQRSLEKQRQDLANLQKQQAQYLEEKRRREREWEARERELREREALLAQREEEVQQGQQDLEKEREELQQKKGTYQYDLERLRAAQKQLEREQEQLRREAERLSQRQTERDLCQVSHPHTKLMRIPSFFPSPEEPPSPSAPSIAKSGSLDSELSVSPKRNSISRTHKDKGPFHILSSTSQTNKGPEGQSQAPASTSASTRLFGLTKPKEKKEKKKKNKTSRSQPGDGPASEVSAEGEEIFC
Details: not given
Regarding “14-3-3 (from UniProt P63104 1-245) (natural protein)”, the loss of co-precipitated 14-3-3 against wild-type AKAP13 was greater than 50%.

The next assay has as its target T1, 14-3-3, P63104. In words: co-immunoprecipitation (IP: FLAG) with immunoblot quantification. To be noted: chain shown with the change; HEK293T cells; 3 biological replicates; parent: est. 1.0; read off a plot. Background: A western blot detects proteins with antibodies after separation by electrophoresis.
Consider B1, for which the ratio to parent worked out at 0.14.

Regarding B2, the ratio to parent was 0.84.

With B3, the ratio to parent came out at 0.88.

Regarding B4, the ratio to parent was 0.8.

Consider B5, for which the ratio to parent was 0.67.
